T1: CARD domain of human ASC (human, UniProt Q9ULZ3 107-195)
T1 construct: biotinylated in BLI; also called hCARD; human CARD
T1 sequence: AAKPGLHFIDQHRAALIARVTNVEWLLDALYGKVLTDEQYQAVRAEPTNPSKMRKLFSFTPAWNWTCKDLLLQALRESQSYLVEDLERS

T2: mouse ASC (mouse, UniProt Q9EPB4 1-193)
T2 construct: recombinant mASC in ELISA and SPR; endogenous ASC of J774.A1 cells in Western blot and immunofluorescence; also called mASC
T2 sequence: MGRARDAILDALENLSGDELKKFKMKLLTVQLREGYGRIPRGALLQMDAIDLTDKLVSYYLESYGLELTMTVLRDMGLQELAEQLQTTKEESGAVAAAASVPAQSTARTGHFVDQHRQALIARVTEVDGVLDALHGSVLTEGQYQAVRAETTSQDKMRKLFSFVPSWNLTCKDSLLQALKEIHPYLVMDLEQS

B1: ACI-8016-203B12C3-AB1 (antibody, V domains shown)
VH: QVQLKQSGPGLVQPSQSLSITCKVSDFSLSHYGVHWVRQSPGKGLEWLGVIWSGGTTEYNEAFISRLTISKDNSKSQILFRMNSLQPADTAIYYCARKGDFYGDYFDYWGQGTTLTVSS
VL: DIQMTQTSSSLSASLGDRVTISCRASQDISNYLNWYQQRPDGTVKLLIYYTSKVHSGVPSRFSGSGSGTDFSLTISNLEQEDFATYYCQQGNTRPFTFGGGTKLEIK
B2: ACI-8016-413G10A5-AB1 (antibody, V domains shown)
VH: QVQLKESGPGLVAPSQSLSITCTVSGFSLTSYGVHWVRQPPGKGLEWLGVIWAGGSTNYNSALMSRLSISKDNSKSQVFLKMNSLQTADTAMYYCARWDYVNSYEAMDYWGQGTSVTVSS
VL: DVVMTQTPLSLPVSLGDQASISCRSSQSLVHSNGNTYLHWYLQKPGQSPKLLIYKVSNRFSGVPDRFSGSGSGTDFTLKISRVEAEDLGVYFCSQSTHVPYTFGGGTKLEIK

Assays:
[1] = biological target: T3, human ASC (apoptosis associated speck-like protein containing a caspase-recruitment domain) (human, UniProt Q9ULZ3 1-195); test: ELISA, coated hASC; ELISA on hASC protein
T3 construct: recombinant hASC in ELISA and SPR; endogenous ASC (cytoplasmic or specks) in Western blot and immunofluorescence; also called hASC; PYCARD

[2] = biological target: T3, human ASC (apoptosis associated …); test: SPR avidity mode, ASC immobilized; SPR avidity mode, hASC covalently immobilized, mAb as analyte;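 for koff: Single-cycle SPR kinetics on Biacore T200, antibodies injected at 1.2–100 nM (3-fold steps), 300 s association, 900 s dissociation, double-referenced, 1:1 kinetic model fit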;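 for kon: Single-cycle SPR kinetics on Biacore T200, antibodies injected at 1.2–100 nM (3-fold steps), 300 s association, 900 s dissociation, double-referenced, 1:1 kinetic model fit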
[3] = biological target: T3, human ASC (apoptosis associated …); test: SPR affinity mode, mAb captured; SPR affinity mode, mAb captured by Fc, hASC 2.2-180 nM in solution;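 for koff: Single-cycle SPR kinetics with mAbs captured on goat anti-mouse antibody, double-referenced against blank flow cell and buffer cycle, fitted by a 1:1 kinetic model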;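 for kon: Single-cycle SPR kinetics with mAbs captured on goat anti-mouse antibody, double-referenced against blank flow cell and buffer cycle, fitted by a 1:1 kinetic model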
[4] = biological target: T1, CARD domain of human ASC; test: ELISA, coated hCARD
[5] = biological target: T4, PYD domain of human ASC (human, UniProt Q9ULZ3 1-91, limits assumed); test: ELISA, coated hPYD;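 note: monoclonal antibody binding to plate-coated human ASC PYD measured by ELISA, with a phosphatase substrate absorbance read-out and EC50 from a variable slope curve fit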
T4 construct: biotinylated in BLI; His/MBP-tagged in the alanine ELISA; also called hPYD; human PYD
T4 sequence (Q9ULZ3 1-91 limits assumed): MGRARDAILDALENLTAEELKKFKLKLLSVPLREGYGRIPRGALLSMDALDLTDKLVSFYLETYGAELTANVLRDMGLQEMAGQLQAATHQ

[6] = biological target: T3, human ASC (apoptosis associated …); test: SPR affinity mode, mAb captured;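 note: Single-cycle SPR kinetics with mAbs captured on goat anti-mouse antibody, double-referenced against blank flow cell and buffer cycle, fitted by a 1:1 kinetic model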
[7] = biological target: T3, human ASC (apoptosis associated …); test: SPR avidity mode, ASC immobilized;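 note: Single-cycle SPR kinetics on Biacore T200, antibodies injected at 1.2–100 nM (3-fold steps), 300 s association, 900 s dissociation, double-referenced, 1:1 kinetic model fit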
[8] = biological target: T3, human ASC (apoptosis associated …); test: ELISA, coated hASC
[9] = biological target: T2, mouse ASC; test: Western blot, J774.A1 mouse macrophage lysate

Binder | EC50 [1] [nM] | Kd [2] [nM] | Kd [3] [nM] | EC50 [4] [nM] | binding result [5] | Kd [6] [nM] | koff [6] [s⁻¹] | kon [6] [M⁻¹ s⁻¹] | Kd [7] [nM] | koff [7] [s⁻¹] | kon [7] [M⁻¹ s⁻¹] | EC50 [8] [nM] | binding result [9]
B1 | 0.1 | 10.2 | 42 | 0.067 | no binding |  |  |  |  |  |  |  | 
B2 |  |  |  | 0.06 | no binding | 0.13 | 2.2e-05 | 160000 | 0.01 | 1.2e-06 | 92000 | 0.05 | no binding
